From US6001988

Key:
[1] = target: T1, wheat germ agglutinin (WGA) (Triticum vulgare) (UniProt P10968); experiment: filter
T1 sequence: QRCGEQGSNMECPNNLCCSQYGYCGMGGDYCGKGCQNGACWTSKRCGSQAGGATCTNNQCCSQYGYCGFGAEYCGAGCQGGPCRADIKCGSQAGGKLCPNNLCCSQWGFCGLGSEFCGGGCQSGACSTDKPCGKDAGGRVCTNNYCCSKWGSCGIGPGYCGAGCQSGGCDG

[2] = target: T2, L-selectin (LS-Rg) (Homo sapiens) (UniProt P14151); experiment: filter
T2 sequence: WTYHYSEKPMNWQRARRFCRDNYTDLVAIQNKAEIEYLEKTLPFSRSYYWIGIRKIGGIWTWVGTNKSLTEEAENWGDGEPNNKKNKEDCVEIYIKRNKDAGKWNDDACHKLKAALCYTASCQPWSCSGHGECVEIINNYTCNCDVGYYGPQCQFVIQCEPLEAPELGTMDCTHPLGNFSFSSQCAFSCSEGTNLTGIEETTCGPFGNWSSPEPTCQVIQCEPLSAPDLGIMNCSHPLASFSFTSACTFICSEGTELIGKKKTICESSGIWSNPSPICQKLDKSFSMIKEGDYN

[3] = target: T3, P-selectin (PS-Rg) (Homo sapiens) (UniProt P16109); experiment: filter
T3 sequence: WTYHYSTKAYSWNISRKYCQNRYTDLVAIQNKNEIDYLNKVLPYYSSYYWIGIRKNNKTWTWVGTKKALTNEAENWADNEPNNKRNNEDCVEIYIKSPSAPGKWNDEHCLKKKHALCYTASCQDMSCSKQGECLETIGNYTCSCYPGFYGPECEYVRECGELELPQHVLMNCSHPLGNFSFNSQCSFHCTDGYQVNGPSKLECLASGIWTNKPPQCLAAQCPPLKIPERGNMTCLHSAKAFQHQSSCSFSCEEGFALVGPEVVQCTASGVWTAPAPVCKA

[4] = target: T4, E-selectin (ES-Rg) (Homo sapiens) (UniProt P16581); experiment: filter
T4 sequence: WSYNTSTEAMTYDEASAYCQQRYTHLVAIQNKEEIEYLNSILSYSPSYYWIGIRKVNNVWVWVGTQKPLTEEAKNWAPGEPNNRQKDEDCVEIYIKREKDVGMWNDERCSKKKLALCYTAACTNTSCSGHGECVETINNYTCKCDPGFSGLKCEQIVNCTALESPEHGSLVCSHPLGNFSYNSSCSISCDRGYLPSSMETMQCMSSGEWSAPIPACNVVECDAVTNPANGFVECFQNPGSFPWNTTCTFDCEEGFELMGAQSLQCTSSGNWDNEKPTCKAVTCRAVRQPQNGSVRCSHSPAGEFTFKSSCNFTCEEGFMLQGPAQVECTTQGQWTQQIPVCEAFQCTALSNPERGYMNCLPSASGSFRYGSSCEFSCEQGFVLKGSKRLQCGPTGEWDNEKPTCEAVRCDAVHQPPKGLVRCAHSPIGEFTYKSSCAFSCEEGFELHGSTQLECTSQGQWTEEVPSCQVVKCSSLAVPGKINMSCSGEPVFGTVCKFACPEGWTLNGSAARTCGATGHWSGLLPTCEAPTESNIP

CD22beta (CD22beta-Rg) = CD22beta (CD22beta-Rg) (UniProt P20273); experiment: filter
Sequence of CD22beta (CD22beta-Rg) (P20273 20-687): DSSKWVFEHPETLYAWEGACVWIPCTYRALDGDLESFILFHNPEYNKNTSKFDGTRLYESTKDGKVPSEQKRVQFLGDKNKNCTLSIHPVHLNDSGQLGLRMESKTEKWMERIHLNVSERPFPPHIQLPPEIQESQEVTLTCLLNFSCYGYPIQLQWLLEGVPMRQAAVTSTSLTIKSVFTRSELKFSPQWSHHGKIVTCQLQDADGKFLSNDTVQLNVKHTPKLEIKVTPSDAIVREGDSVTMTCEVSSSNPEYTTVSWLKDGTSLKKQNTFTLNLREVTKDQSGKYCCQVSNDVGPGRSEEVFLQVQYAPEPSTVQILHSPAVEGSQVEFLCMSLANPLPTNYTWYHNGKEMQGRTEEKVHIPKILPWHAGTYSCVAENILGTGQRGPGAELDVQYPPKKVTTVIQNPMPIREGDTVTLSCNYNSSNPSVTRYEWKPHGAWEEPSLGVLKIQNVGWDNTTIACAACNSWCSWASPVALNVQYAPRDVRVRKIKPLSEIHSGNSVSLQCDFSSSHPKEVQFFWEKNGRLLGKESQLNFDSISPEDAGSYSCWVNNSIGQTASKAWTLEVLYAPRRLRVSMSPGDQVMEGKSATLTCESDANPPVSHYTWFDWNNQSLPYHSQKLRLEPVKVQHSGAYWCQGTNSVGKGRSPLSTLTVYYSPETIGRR

[5] = tested on: Datura stramonium lectin (Datura stramonium); experiment: filter; conditions: 2'-NH2 all C and U
[6] = target: T5, L-selectin on PBMC (Homo sapiens) (UniProt P14151); conditions: 2'-NH2 all C and U; PBMC binding on ice; competed by DREG-56 anti-L-selectin antibody
T5 sequence: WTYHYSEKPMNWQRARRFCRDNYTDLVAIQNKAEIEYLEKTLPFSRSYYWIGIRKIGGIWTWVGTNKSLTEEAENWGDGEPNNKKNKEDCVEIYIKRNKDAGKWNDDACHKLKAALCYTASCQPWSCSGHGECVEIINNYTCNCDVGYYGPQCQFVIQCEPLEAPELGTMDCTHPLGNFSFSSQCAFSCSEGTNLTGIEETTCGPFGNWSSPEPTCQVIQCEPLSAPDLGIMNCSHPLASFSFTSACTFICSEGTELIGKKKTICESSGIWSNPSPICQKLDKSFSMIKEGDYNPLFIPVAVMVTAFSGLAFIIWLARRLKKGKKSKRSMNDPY

[7] = target: T2, L-selectin (LS-Rg) (Homo sapiens); experiment: inhibition; conditions: 2'-NH2 all C and U; inhibits LS-Rg binding to immobilized sialyl-Lewis X, room temp, Ca/Mg
[8] = 2'-NH2 on all C and U, <5% binding at highest protein, 4 C, HSMC
[9] = 2'-NH2 all C and U, HBSS, room temp

GGGAAAAGCGAAUCAUACACAAGANNNNNNNNNNNNNNNNNNNNNNNNNNNNNNNNNNNNNNNNNNNNNNNNNNGCUCCGCCAGAGACCAACCGAGAA [random 50N9 RNA pool]
Kd ([1]; 2'-NH2 all C and U, no binding at 36 uM WGA monomer): > 4000 µM

GGGAGGACGAUGCGGAAGUGAAGCUAAAGSGGAGGGCCACUCAGAAACGCACCACAGACGACUCGCCCGA [F14.13]
Kd ([2]; 2'-NH2 all C and U, 4 C, HSMC, biphasic, fraction 0.74, low affinity Kd 270 nM): 1.3 nM

CTACCTACGATCTGACTAGCCGAGGTAGTCGTTATAGGGTRCRCACGACACAAARCRGTRGCTTACTCTCATGTAGTTCC [127]
Kd ([2]; room temp, 890 pM at 37 C): 1 nM
Kd ([1]; <3% binding at 1.4 µM, room temp): > 100 µM
Kd ([3]; room temp, Ca/Mg buffer): 0.78 µM
Kd ([4]; room temp, Ca/Mg buffer): 1.3 µM
Kd (CD22beta (CD22beta-Rg); <1% binding at 700 nM, room temp): > 100 µM

GGGAAAAGCGAAUCAUACACAAGACAGCGGCGGAGUCAGUGAAAGCGUGGGGGGYGCGGGAGGUCUACCCUGACGCUCCGCCAGAGACCAACCGAGAA [6.14]
Kd ([1]; 2'-NH2 all C and U, <5% bound at 1 uM WGA): > 20 µM

GGGAAAAGCGAAUCAUACACAAGAUUGGUCGUACUGGACAGAGCCGUGGUAGAGGGAUUGGGACAAAGUGUCAGCUCCGCCAGAGACCAACCGAGAA [11.20]
Kd ([5]; HBSS, room temp): 11.2 µM

GGGAGGACGAUGCGGUCCAGAGCGUGAAGAUCAACGUCCCGGNGUCGAAGACAGACGACUCGCCCGA [F14.70]
Kd ([2]; 2'-NH2 all C and U, 4 C, HSMC, biphasic, fraction 0.75, low affinity Kd 254 nM, 7.8 nM at room temp): 2 nM
Kd ([4]; 2'-NH2 all C and U, 4 C, HSMC): 5.9 µM
Kd (CD22beta (CD22beta-Rg); [8]): > 20 µM

GGGAAAAGCGAAUCAUACACAAGACGGCUGUGUGGUGUUGGAGCGUCAUAGUAGGAGUCGUCACGAACCAAGGCGCUCCGCCAGAGACCAACCGAGAA [11.24]
Kd ([5]; <5% bound at 1 uM protein): > 20 µM

GGGAGGACGAUGCGGCCGUACAUGGUAARCCUCGAAGGAUUCCCGGGAUGAUCCCCAGACGACUCGCCCGA [F14.27]
Kd ([2]; 2'-NH2 all C and U, 4 C, HSMC): 145 nM

GGGAAAAGCGAAUCAUACACAAGAGAGGUGRAUGGGAGAGUGGAGCCCGGGUGACUCGAGGAUUCCCGUGCUCCGCCAGAGACCAACCGAGAA [11.3]
Kd [1, 9]: 0.41 µM

GGGAAAAGCGAAUCAUACACAAGAAAGGGAUGGGAUUGGGACGAGCGGCCAAGACUCGGCGGGAACGAAGGGUCCGCUCCGCCAGAGACCAACCGAGAA [6.8]
Kd ([5]; <5% bound at 1 uM protein): > 20 µM

GGGAGGACGAUGCGGUAACAACAAUCAAGGCGGGUUYACCGCCCCAGUAUGAGUACAGACGACUCGCCCGA [F14.12]
Kd [6]: 0.0013 µM
IC50 [7]: 0.01 µM
Kd ([2]; 2'-NH2 all C and U, 4 C, HSMC, Table IX prints 5.8 pM (fraction 0.68, low affinity Kd 16.2 nM), 1.7 nM at room temp): 0.06 nM
Kd ([3]; 2'-NH2 all C and U, 4 C, HSMC): 0.91 µM
Kd ([4]; 2'-NH2 all C and U, 4 C, HSMC): 0.047 µM
Kd (CD22beta (CD22beta-Rg); 2'-NH2 all C and U, <5% bound at up to 660 nM, 4 C): > 20 µM

GGGAGGACGAUGCGGNNNNNNNNNNNNNNNNNNNNNNNNNNNNNNNNNNNNNNNNCAGACGACUCGCCCGA [random 40N7 RNA pool]
Kd ([2]; 2'-NH2 all C and U, estimate for random RNA): 10000 nM

GGGAGGACGAUGCGGAAGUGAAGCUAAAGCGGAGGGCCAUUCAGUUUCNCACCACAGACGACUCGCCCGA [F14.2]
Kd ([2]; 2'-NH2 all C and U, 4 C, HSMC, 7.2 nM at room temp): 1.8 nM
Kd ([3]; 2'-NH2 all C and U, 4 C, HSMC): 0.45 µM
Kd ([4]; 2'-NH2 all C and U, 4 C, HSMC): 1.9 µM
Kd (CD22beta (CD22beta-Rg); [8]): > 20 µM

CTACCTACGATCTGACTAGCNNNNNNNNNNNNNNNNNNNNNNNNNNNNNNNNNNNNNNNNGCTTACTCTCATGTAGTTCC [random 40BH ssDNA pool]
Kd ([2]; estimate for random ssDNA): 10000 nM

GGGAAAAGCGAAUCAUACACAAGAGUAGGAGGUUCCAUCACCAGGACUCGGCGGGAACGGAAGGUGAUGSGCUCCGCCAGAGACCAACCGAGAA [11.35]
Kd [1, 9]: 0.09 µM

CTACCTACGATCTGACTAGCCGAGGATCTGATACTTATTGAACATAMCCGCACNCAGGCTTGCTTACTCTCATGTAGTTCC [102]
Kd ([2]; 37 C, room temp not determined): 7.9 nM

GGGAAAAGCGAAUCAUACACAAGACUGGCAAGRAGUGCGUGAGGGUACGUUAGGGGUGUUUGGGCCGAUCGCAUGCUCCGCCAGAGACCAACCGAGAA [11.7]
Kd [1, 9]: 0.016 µM
